Results taken from US20130230533A1 (Regeneron, published 2013).
Blank lines part the entries; values can stand above or below the binder they belong to.

Key:
[1] = molecular target: T1, human CD48 (on primary human peripheral blood mononuclear cells) (human, UniProt P09326 27-220); assay: cell-based or functional assay
T1 sequence: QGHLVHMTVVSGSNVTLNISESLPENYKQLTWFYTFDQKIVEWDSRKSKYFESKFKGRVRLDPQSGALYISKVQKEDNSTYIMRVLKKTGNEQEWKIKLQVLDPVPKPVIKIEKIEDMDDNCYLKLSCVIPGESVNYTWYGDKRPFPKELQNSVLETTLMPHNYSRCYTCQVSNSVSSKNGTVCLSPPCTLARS

[2] = molecular target: T1, human CD48 (on primary human peripheral …); assay: cell-based or functional assay; remark: listed apart in the source
[3] = molecular target: T1, human CD48 (on primary human peripheral …); assay: cell-based or functional assay; remark: listed apart in the source
[4] = molecular target: T1, human CD48 (on primary human peripheral …); assay: cell-based or functional assay; remark: listed apart in the source
[5] = molecular target: T2, monomeric monkey CD48 expressed with a tag consisting of 2 myc and one 6-His epitopes (monkey); assay: competition ELISA; blocks mfCD48-mmH binding to coated h2B4-mFc
T2 construct: also called mfCD48-mmH; Monomeric monkey CD48-mmH
T2 chain: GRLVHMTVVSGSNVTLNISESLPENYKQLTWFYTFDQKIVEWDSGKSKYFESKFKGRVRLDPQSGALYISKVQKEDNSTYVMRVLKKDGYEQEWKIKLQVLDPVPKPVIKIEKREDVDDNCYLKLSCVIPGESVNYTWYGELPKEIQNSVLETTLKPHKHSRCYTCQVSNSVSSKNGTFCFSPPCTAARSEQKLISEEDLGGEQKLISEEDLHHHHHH
Experimental: (§1) The ability of human anti-CD48 monoclonal antibodies to block human CD48 and monkey CD48 binding to the human cognate ligand, human 2B4, was measured using a competition sandwich ELISA (Table 8). Constant amounts of biotinylated dimeric human CD48 protein expressed as a fusion with mouse IgG2a Fc (“bio-hCD48-mFc” [SEQ ID NO: 387]) or monomeric monkey CD48 expressed with a tag consisting of 2 myc and one 6-His epitopes (“mfCD48-mmH” [SEQ ID NO: 386]) were separately titrated with varying amounts of antibodies. These antibody-protein complexes were incubated (1 hr, 25° C.) before being transferred to microtiter plates coated with a dimeric construct expressing the human 2B4 receptor fused to a either human IgG1 (h2B4-hFc [R&D Systems, Inc., Minneapolis, Minn., Cat. No. 1039-2B]) or mouse IgG2a Fc (h2B4-mFc [SEQ ID NO: 389). After a 1 hr at 25° C. the wells were washed and bound human CD48 was detected with streptavidin conjugated with horse-radish peroxidase (HRP), and monkey CD48 was detected with an HRP conjugated anti-myc polyclonal antibody. The ELISA was developed with a TMB solution to produce a colorimetric reaction and quenched with sulfuric acid before reading absorbance at 450 nm on a Victor X5 plate reader. Sigmoidal dose response curves were fit to the data using Prism™ software. […] (Tables 8 and 9, NB=no binding observed)

[6] = molecular target: T3, biotinylated dimeric human CD48 protein expressed as a fusion with mouse IgG2a Fc (human, biotinylated); assay: competition ELISA; blocks bio-hCD48-mFc binding to coated h2B4-mFc
T3 construct: also called bio-hCD48-mFc; Dimeric human CD48-mFc
T3 chain: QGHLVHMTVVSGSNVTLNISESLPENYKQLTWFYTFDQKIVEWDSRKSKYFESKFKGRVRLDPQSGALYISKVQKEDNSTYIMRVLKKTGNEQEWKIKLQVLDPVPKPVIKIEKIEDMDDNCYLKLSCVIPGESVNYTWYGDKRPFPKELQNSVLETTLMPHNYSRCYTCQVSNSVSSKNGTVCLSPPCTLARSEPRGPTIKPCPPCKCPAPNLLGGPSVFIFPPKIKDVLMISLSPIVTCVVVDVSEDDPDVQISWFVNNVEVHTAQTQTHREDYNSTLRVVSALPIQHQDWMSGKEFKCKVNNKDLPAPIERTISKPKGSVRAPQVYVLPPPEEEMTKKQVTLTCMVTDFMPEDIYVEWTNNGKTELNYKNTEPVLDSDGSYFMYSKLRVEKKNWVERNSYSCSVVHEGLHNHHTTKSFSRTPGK
Experimental: as §1

[7] = molecular target: T1, human CD48 (on primary human peripheral …); assay: cell-based or functional assay; remark: listed apart in the source
[8] = molecular target: T2, monomeric monkey CD48 expressed with a …; assay: competition ELISA; blocks mfCD48-mmH binding to coated h2B4-hFc
Experimental: as §1

[9] = molecular target: T3, biotinylated dimeric human CD48 protein …; assay: competition ELISA; blocks bio-hCD48-mFc binding to coated h2B4-hFc
Experimental: as §1

B2: H2M1707N (antibody, V domains shown)
VH: EGQLLESGGGLAQPGGSLRLSCAASGITFGRYAMSWVRQAPGKGLEWVSLISGSGGSTYHADSVKGRFTISRDNSKNTLYLQMNSLRAEDTAVYYCAIYNNYNWFDPWGQGTLVTVSS
VL: EIVLTQSPGTLSLSPGERATLSCRASQSVSSNYLAWYQQKPGQAPRLLIYDASSRATDIPDRFSGSGSGTDFTLTISRLEPEDFAVYYCQQYGSSPRTFGQGTKVEIK
notes: Human variable domains, mouse IgG2 Fc (H2M)
- Inhibition of IFN-gamma Release IC50; Donor 1 [7]: 4.9e-11 Molar
- Inhibition of IFN-gamma Release IC50; Donor 2 [7]: 3e-11 Molar
- Inhibition of IFN-gamma Release IC50; Donor 3 [7]: 1.1e-10 Molar
- Inhibition of IFN-gamma Release IC50; Donor 4 [7]: 1.7e-10 Molar
- Inhibition of IFN-gamma Release IC50; Donor 5 [7]: 1.5e-11 Molar
- Inhibition of IFN-gamma Release IC50; Donor 6 [1]: 9.3e-12 Molar
- Inhibition of IFN-gamma Release IC50; Donor 7 [1]: 1.9e-11 Molar
- IC50 [8]: 0.023 nM
- IC50 [5]: 0.0049 nM
- IC50 [9]: 0.022 nM
- IC50 [6]: 0.0086 nM

B3: H2M1709N (antibody, mouse IgG2, V domains shown)
VH: QVQLVQSGAEVKKPGASVKVSCKVSGYTLTELSIHWVRQAPGKGLEWMGGFDPEDGETIYAQKFQGRVNMTEDTSTDTAYMELSSLRSDDTTVYFCASLLPYFDYWGQGTLVTVSS
VL: EIVLTQSPGTLSLSPGERATLSCRASQSVSSSYLAWYQQKPGQAPRLLIYGASSRATGIPDRFSGSGSGTDFTLSISRLEPEDFAVYFCQQYGSSMYTFGQGTKLEIK
notes: as for B2
- Inhibition of IFN-gamma Release IC50; Donor 1 [7]: 4.8e-11 Molar
- Inhibition of IFN-gamma Release IC50; Donor 2 [7]: 5.7e-11 Molar
- Inhibition of IFN-gamma Release IC50; Donor 3 [7]: 1.2e-10 Molar
- Inhibition of IFN-gamma Release IC50; Donor 4 [7]: 1.1e-10 Molar
- Inhibition of IFN-gamma Release IC50; Donor 5 [7]: 3.2e-11 Molar
- IC50 [8]: 0.12 nM
- IC50 [9]: 0.045 nM

Next, values leading:

- Inhibition of IFN-gamma Release IC50; Donor 6 [1]: 1.2e-11 Molar
- Inhibition of IFN-gamma Release IC50; Donor 7 [1]: 1.8e-11 Molar
- Inhibition of IFN-gamma Release IC50; Donor 8 [2]: 3.7e-11 Molar
- Inhibition of IFN-gamma Release IC50; Donor 9 [2]: 1.6e-11 Molar
- Inhibition of IFN-gamma Release IC50; Donor 10 [2]: 1.3e-11 Molar
- Inhibition of IFN-gamma Release IC50; Donor 11 [2]: 1.3e-11 Molar
- % Blockade of IFNγ release, MLR; D1 [3]: 65%
- % Blockade of IFNγ release, MLR; D2 [3]: 66%
- % Blockade of IFNγ release, MLR; D3 [3]: 88%
- % Blockade of IFNγ release, MLR; D4 [3]: 36%
- % Blockade of IFNγ release, MLR; D5 [3]: 89%
- % Blockade of IFNγ release, MLR; D6 [3]: 82%
- % Blockade of IFNγ release, MLR; D7 [3]: 75%
- % Blockade of IFNγ release, MLR; D8 [3]: 65%
- % Blockade of IFNγ release, MLR; D9 [3]: 66%
- IC50 of IFNγ release, MLR; D1 [4]: ~0.0014 nM
- IC50 of IFNγ release, MLR; D2 [4]: ~0.0093 nM
- IC50 of IFNγ release, MLR; D4 [4]: 0.23 nM
- IC50 of IFNγ release, MLR; D5 [4]: ~0.09 nM
- IC50 of IFNγ release, MLR; D6 [4]: 0.0028 nM
- IC50 of IFNγ release, MLR; D8 [4]: 0.029 nM
- IC50 of IFNγ release, MLR; D9 [4]: 0.18 nM
- IC50 of IFNγ release, MLR; D10 [4]: ~0.05 nM
- IC50 of IFNγ release, MLR; D11 [4]: ~0.092 nM
- IC50 of IFNγ release, MLR; D12 [4]: ~0.3 nM
- IC50 of IFNγ release, MLR; D13 [4]: ~0.096 nM
- IC50 of IFNγ release, MLR; D14 [4]: 0.2 nM
- IC50 of IFNγ release, MLR; D15 [4]: ~0.0027 nM
- IC50 of IFNγ release, MLR; D16 [4]: ~0.012 nM
- IC50 [5]: 0.038 nM
- IC50 [6]: 0.053 nM
B1: H4H1789Pa (antibody, V domains shown)
VH: EVQLLESGGGLVHPGGSLRLSCAASGFTFGGYAMSWVRQAPGKGLEWVSLISGSGGSTYYADSVKGRFTIFRDNSKNTLYLQMISLRAEDSAVYYCAKYSNYDYFDPWGQGTLVTVSS
VL: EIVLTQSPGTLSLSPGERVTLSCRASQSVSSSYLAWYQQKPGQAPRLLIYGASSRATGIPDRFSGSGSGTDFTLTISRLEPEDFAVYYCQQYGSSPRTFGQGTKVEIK
notes: Human IgG4 Fc (H4H)

- Inhibition of IFN-gamma Release IC50; Donor 1 [7]: 2.7e-11 Molar
- Inhibition of IFN-gamma Release IC50; Donor 2 [7]: 1.1e-10 Molar
- Inhibition of IFN-gamma Release IC50; Donor 3 [7]: 1.9e-10 Molar
- Inhibition of IFN-gamma Release IC50; Donor 4 [7]: 9.5e-11 Molar
- Inhibition of IFN-gamma Release IC50; Donor 5 [7]: 1.9e-11 Molar
- Inhibition of IFN-gamma Release IC50; Donor 6 [1]: 1e-10 Molar
- IC50 [8]: 0.24 nM
- IC50 [5]: 0.062 nM
- IC50 [9]: 0.064 nM
- IC50 [6]: 0.029 nM
B4: H2M1764N (antibody, mouse IgG2, V domains shown)
VH: QVQLVESGGGVVQPGRSLRLSCAASGFTFSDYGMHWVRQAPGKGLEWVAVIWNDGSNKNYADSVKGRFSISSDSSKNTLYLHMNSLRAEDTAVYYCARSLYSTSPWYFDLWGRGTLVTVSS
VL: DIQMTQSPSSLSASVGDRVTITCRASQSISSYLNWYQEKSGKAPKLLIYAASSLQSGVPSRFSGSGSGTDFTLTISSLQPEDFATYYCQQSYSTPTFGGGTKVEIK
notes: as for B2
